Measurements as given in US20190359653A1 (Genentech, published 2019).
Read-outs that look alike come from different tables or passages of the source. Numbered stars: 1 amine (or outer) side, 2 acyl side, 3 side chain; on linkers, the order of the positions; unused ones are H or OH. Square brackets hold non-standard residues; d marks the D form. Ends that are not written are not given here. * marks the point of attachment. ξ: configuration not given here. Adp = 2-amino-3-decyloxy-propionic acid, CCCCCCCCCCOC[C@H](N[*:1])C(=O)[*:2]; Tbh = 6-hydroxy-L-norleucine, O=C([C@H](CCCCO[*:3])N[*:1])[*:2]; hPhe = N[C@@H](CCc1ccccc1)C(=O)O; ξGly(octyl) = CCCCCCCCC(N)C(=O)O; hLeu = CC(C)CC[C@H](N)C(=O)O; Octanoyl = CCCCCCCC(=O)*

Columns and labels:
[1] = molecular target: T1, hFZD8 CRD-Fc (human, UniProt Q9H461 28-158, limits assumed); assay: spot phage ELISA
T1 construct: domain: CRD; bought (R&D Systems); not shown: Fc part
T1 sequence (looked up): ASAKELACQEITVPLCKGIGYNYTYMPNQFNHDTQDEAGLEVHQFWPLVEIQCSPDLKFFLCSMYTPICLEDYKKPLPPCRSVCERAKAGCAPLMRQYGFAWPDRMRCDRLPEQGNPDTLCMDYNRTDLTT

[2] = molecular target: T2, hFZD7 CRD-Fc (human, UniProt O75084 33-185); assay: spot phage ELISA
[3] = molecular target: T3, FZD7 receptor of HEK293-TB cells (human, UniProt O75084 33-574); assay: cell-based or functional assay
[4] = molecular target: T3, FZD7 receptor of HEK293-TB cells; assay: cell-based or functional assay; remark: listed apart in the source
[5] = molecular target: T3, FZD7 receptor of HEK293-TB cells; assay: cell-based or functional assay; remark: listed apart in the source
[6] = molecular target: T1, hFZD8 CRD-Fc; assay: spot phage ELISA; remark: listed apart in the source
[7] = molecular target: T2, hFZD7 CRD-Fc; assay: spot phage ELISA; remark: listed apart in the source
[8] = molecular target: T3, FZD7 receptor of HEK293-TB cells; assay: cell-based or functional assay; remark: listed apart in the source

Binder | signal:noise ratio [1] | signal:noise ratio [2] | also measured
TYFDDICNLILPWANP [SEQ ID NO 2] | 1.4 | 27.5 | 
Ac-LPSDNLEFWCHVMY-NH2 [Fz7-21N] |  |  | IC50 (µM), Wnt3a-mediated β-catenin signaling, TOPbrite reporter in HEK293-TB cells (50 ng/mL mWnt3a) [3]: 0.41 µM
FLPDQHSHLFLPWGEP [SEQ ID NO 20] | 1 | 5.3 | 
ISLIEAMIALDRVF (also called Fz7-06) [SEQ ID NO 11] | 25.8 | 27 | 
Ac-SDDLEFWCHVMY-NH2 (also: homodimer via Cys8 disulfide) [dFz7-21Δ2 (Q519)] |  |  | IC50 (nM), TOPbrite reporter assay in HEK293-TB cells stimulated with mWnt3a (50 ng/mL) [4]: 8.8 nM; Reduction in fold potency vs. dimer [4]: 1 fold; Best Fit IC50 (nM), Wnt3a-mediated β-catenin signaling in HEK293-TB cells (50 ng/mL mWnt3a) [5]: 4.3 nM
Ac-LPSDDLEFWSHVMY-NH2 [Fz7-21S] |  |  | Reduction in fold potency vs. dimer [4]: > 9000 fold
ACSYVIDLWNLCLR [SEQ ID NO 9] | 1.5 | 27.6 | 
TSDFSWCLSWCDLIFW (not fully specified; cysteine pairing not given here, cyclic peptide library) [SEQ ID NO 35] |  |  | signal:noise ratio [6]: 1.27; signal:noise ratio [7]: 28.4
Ac-SDDLEFWCHV[Adp]Y-NH2 (also: dimer via disulfide bond at Cys8) [dFz7-21Δ2.M13Adp] |  |  | Best Fit IC50 (nM), Wnt3a-mediated β-catenin signaling in HEK293-TB cells (50 ng/mL mWnt3a) [5]: 1410 nM
DTDLHQWCLWFT [SEQ ID NO 6] | 9.3 | 30.2 | 
DTDLLQWCLWFT [SEQ ID NO 14] | 6 | 31.1 | 
PQDLLDWCHYMIVSSD [SEQ ID NO 3] | 1.3 | 29.1 | 
FDFCSVMPHFIYCPGD (not fully specified; cysteine pairing not given here, cyclic peptide library) [SEQ ID NO 37] |  |  | signal:noise ratio [6]: 1.12; signal:noise ratio [7]: 27.5
FDFCSVMPQFIYCPGD (not fully specified; cysteine pairing not given here, cyclic peptide library; also called Fz7-20) [SEQ ID NO 33] |  |  | signal:noise ratio [6]: 2.1; signal:noise ratio [7]: 26
FDFCTVMPHFIYCPGD (not fully specified; cysteine pairing not given here, cyclic peptide library) [SEQ ID NO 36] |  |  | signal:noise ratio [6]: 2.01; signal:noise ratio [7]: 27.4
ASELHDWCRMMFPW [SEQ ID NO 10] | 1.3 | 28.9 | 
VFFYHSLFFIKLILDP [SEQ ID NO 28] | 1.3 | 4.7 | 
IWFKGRFVEFSSLV (also called Fz7-17) [SEQ ID NO 23] | 1 | 7.7 | 
LSSGKKVSSYWFNFWF [SEQ ID NO 30] | 1 | 3.5 | 
Ac-SDD[hLeu]EFWCHVMY-NH2 (also: dimer via disulfide bond at Cys8) [dFz7-21Δ2.L6Hol] |  |  | Best Fit IC50 (nM), Wnt3a-mediated β-catenin signaling in HEK293-TB cells (50 ng/mL mWnt3a), n = 2 [5]: 16600 nM
LPLFFLSYVL [SEQ ID NO 19] | 1.1 | 6.3 | 
SCQMWSNLRVLFLSYW [SEQ ID NO 21] | 0.7 | 1 | 

Binder | signal:noise ratio [1] | signal:noise ratio [2] | also measured
NAFWRDQCLEWFIICL [SEQ ID NO 24] | 1.1 | 5.5 | 
Ac-SDDK(Octanoyl)EFWCHVMY-NH2 (also: dimer via disulfide bond at Cys8) [dFz7-21Δ2.L6KC (8)] |  |  | Best Fit IC50 (nM), Wnt3a-mediated β-catenin signaling in HEK293-TB cells (50 ng/mL mWnt3a) [5]: 1170 nM
ILTFEYFWILGLIL [SEQ ID NO 18] | 1.1 | 4.5 | 
VFVPFSELTSLC [SEQ ID NO 22] | 1 | 7.8 | 
Ac-LPSDDLEFW[dC]HVMY-NH2 [Fz7-21C] |  |  | fold reduction of the potency of Wnt1 inhibition against Fz7-21 (FIG. 2D) [8]: 16 fold; fold reduction of the potency of Wnt3a inhibition against Fz7-21 (FIG. 2D) [8]: 31 fold
PPNVHEGCWSMFPW [SEQ ID NO 12] | 1.3 | 28.1 | 
GDFWPGSLLWEILV [SEQ ID NO 17] | 1 | 4.4 | 
EHDLLLRAMNSFVLIF [SEQ ID NO 25] | 1 | 7.6 | 
FWMLLQEGFAFWFP [SEQ ID NO 7] | 6.4 | 30.5 | 
Ac-SDDLEFWCHV[Tbh]Y-NH2 (also: dimer via disulfide bond at Cys8) [dFz7-21Δ2.M13Tbh] |  |  | Best Fit IC50 (nM), Wnt3a-mediated β-catenin signaling in HEK293-TB cells (50 ng/mL mWnt3a) [5]: 477 nM
FWFDFWFG [SEQ ID NO 31] | 0.8 | 4.2 | 
HLSDVCCSDWCDLVFW (not fully specified; cysteine pairing not given here, cyclic peptide library) [SEQ ID NO 34] |  |  | signal:noise ratio [6]: 1.09; signal:noise ratio [7]: 16.1
HLSDVFCSDWCDLVFW (not fully specified; cysteine pairing not given here, cyclic peptide library) [SEQ ID NO 38] |  |  | signal:noise ratio [6]: 1.28; signal:noise ratio [7]: 17.5
NPPPECFLSK [SEQ ID NO 27] | 1.1 | 5.2 | 
Ac-LPSDDLEFWCHVMY-NH2 (also: homodimer via Cys10-Cys10 disulfide) [dFz7-21] |  |  | IC50 (nM), TOPbrite reporter assay in HEK293-TB cells stimulated with mWnt3a (50 ng/mL) [4]: 11.1 nM; Reduction in fold potency vs. dimer [4]: 1 fold; Best Fit IC50 (nM), Wnt3a-mediated β-catenin signaling in HEK293-TB cells (50 ng/mL mWnt3a) [5]: 14.1 nM
Ac-SDD[hPhe]EFWCHVMY-NH2 (also: dimer via disulfide bond at Cys8) [dFz7-21Δ2.L6Hof] |  |  | Best Fit IC50 (nM), Wnt3a-mediated β-catenin signaling in HEK293-TB cells (50 ng/mL mWnt3a) [5]: 14.9 nM
ERRVCYPWFEVSQP [SEQ ID NO 29] | 1.2 | 2.6 | 
FELLLDLGDLIRLW [SEQ ID NO 8] | 2 | 26.9 | 
Ac-SDDLEFWCHV[ξGly(octyl)]Y-NH2 (also: dimer via disulfide bond at Cys8) [dFz7-21Δ2.M13C8] |  |  | Best Fit IC50 (nM), Wnt3a-mediated β-catenin signaling in HEK293-TB cells (50 ng/mL mWnt3a) [5]: 14000 nM
SSDFSGCLSWCDLIFG (not fully specified; cysteine pairing not given here, cyclic peptide library) [SEQ ID NO 32] |  |  | signal:noise ratio [6]: 1.39; signal:noise ratio [7]: 28.4
FCENPYIICW [SEQ ID NO 26] | 0.8 | 8.6 | 
